The source of these data is US20160031999A1 (CSL, published 2016).

Assay [1] addresses T1, K66R mutant of soluble human IL-11Rα (SEQ ID NO: 96) (human, UniProt Q14626 23-318).
T1 construct: also called K44R
T1 sequence: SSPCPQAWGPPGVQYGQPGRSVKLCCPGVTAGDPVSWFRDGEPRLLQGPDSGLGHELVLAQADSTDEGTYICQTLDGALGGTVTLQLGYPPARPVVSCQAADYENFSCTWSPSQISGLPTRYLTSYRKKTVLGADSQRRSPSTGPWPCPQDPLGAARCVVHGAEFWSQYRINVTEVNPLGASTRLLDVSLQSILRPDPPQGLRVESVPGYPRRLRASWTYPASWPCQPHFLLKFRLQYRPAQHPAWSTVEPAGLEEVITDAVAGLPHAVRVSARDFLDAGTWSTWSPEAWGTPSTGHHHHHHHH
As to the kind of experiment: Biacore. As for the experimental part: Anti human IgG Fc specific antibody was chemically immobilized on a CM5 chip to ˜9000 RU. Antibodies were captured at about 0.3-1 μg/ml for 120 seconds on 2 spots in each flow cell. Adjacent spots consisting of only anti human IgG were used as a reference. IL-11 receptors were injected over the captured antibodies and reference spots at 40, 10, 5 and 2.5 nM in duplicate. Blank injections of buffer only were also performed in duplicate. Injection was performed for 3 minutes and dissociation monitored for a further 5 minutes.
The K66R mutation led to a decrease in KD of just over twofold when compared to WT D1/2 (SEQ ID NO: 85) for antibodies 8E2 and 8D10, indicating some involvement of this residue in antibody binding.

For assay [2], the target named is T2, polypeptide of SEQ ID NO: 86 (human IL-11Rα 23-110 and mouse IL-11Rα 111-367, 8×HIS tag) (human and mouse (chimera), UniProt Q64385 23-367 (mouse entry)).
T2 chain: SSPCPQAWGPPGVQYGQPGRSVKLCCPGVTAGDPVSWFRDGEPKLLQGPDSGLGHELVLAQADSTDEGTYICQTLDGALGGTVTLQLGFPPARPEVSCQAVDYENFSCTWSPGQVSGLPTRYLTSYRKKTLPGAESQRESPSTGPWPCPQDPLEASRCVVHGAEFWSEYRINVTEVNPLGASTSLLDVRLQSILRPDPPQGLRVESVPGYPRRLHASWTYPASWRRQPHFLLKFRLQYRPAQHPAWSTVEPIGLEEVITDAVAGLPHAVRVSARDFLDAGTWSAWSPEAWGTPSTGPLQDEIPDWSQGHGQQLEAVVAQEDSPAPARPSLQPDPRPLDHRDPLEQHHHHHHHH
Nature of the assay: Biacore, antibody captured; N/B: no or ablated binding. How it is done: (§1) Various soluble forms of IL-11R comprising regions of hIL-11R and mIL-11R were produced and comprise sequences as set forth in SEQ ID NOs: 3 and 86-90 and the binding of antibodies 8E2, 8D10 and 8E4 to those polypeptides was determined using Western blotting or Biacore analysis.
(§2) For Biacore analysis, anti-human was IgG immobilized on the sensor surface at ˜10,000-12,000 RU and each antibody was captured at between 0.2 μg/ml and 0.5 μg/ml every cycle for 120 seconds. IL-11 receptors were injected over captured antibodies at varying concentrations, ranging from 1 μM down to 2.5 nM, including injections of buffer blanks. Association was monitored for 3-5 minutes, dissociation was monitored for 3-10 minutes. Approximate affinities were determined by fitting binding curves of each interaction to a 1:1 Kinetic Model.
For orientation: Surface plasmon resonance follows binding to a sensor surface in real time, without labels.

Assay [3] deals with T3, polypeptide of SEQ ID NO: 89 (mouse IL-11Rα 24-215 and human IL-11Rα 216-363, 8×HIS tag) (mouse and human (chimera), UniProt P70225 24-363).
T3 chain: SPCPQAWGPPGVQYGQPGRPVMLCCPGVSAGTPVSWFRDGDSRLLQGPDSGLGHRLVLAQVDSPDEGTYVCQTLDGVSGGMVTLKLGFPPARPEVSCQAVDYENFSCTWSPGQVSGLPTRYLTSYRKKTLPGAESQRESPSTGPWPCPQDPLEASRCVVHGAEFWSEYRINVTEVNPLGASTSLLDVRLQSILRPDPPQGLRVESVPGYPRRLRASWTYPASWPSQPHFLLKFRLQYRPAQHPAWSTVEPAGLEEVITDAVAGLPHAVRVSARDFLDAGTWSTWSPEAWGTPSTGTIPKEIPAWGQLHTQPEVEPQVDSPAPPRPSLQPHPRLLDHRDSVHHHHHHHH
The description is as above. How it is done: as §1, §2

Assay [4] concerns the target T4, polypeptide of SEQ ID NO: 90 (amino acids 24 to 367 of mouse IL-11Rα, serine at position 206, 8×HIS tag) (mouse, UniProt Q64385 24-367).
T4 construct: also called soluble mIL-11Rα
T4 sequence: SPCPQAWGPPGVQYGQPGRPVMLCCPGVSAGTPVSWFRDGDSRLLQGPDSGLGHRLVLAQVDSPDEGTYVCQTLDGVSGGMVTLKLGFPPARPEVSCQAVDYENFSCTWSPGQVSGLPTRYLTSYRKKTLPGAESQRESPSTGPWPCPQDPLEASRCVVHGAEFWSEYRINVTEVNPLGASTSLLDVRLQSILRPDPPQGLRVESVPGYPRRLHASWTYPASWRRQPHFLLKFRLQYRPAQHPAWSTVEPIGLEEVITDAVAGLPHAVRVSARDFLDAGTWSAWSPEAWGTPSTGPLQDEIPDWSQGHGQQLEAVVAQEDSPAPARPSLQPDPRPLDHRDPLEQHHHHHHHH
The description is as above. How it is done:
as §1, §2

B1: antibody 8D10 (antibody, human IgG4 S228P, kappa, V domains shown)
VH: EVQLLESGGGLVQPGGSLRLSCAASGFTFSRYMMGWVRQAPGKGLEWVSSIVPSGGITIYADSVKGRFTISRDNSKNTLYLQMNSLRAEDTAVYYCARDHMGIVATDWGQGTLVTVSS
VL: DIQMTQSPSSLSASVGDRVTITCQASQDITNYLNWYLHKPGKAPKLLIYDASNLQTGVPSRFSGSGSGTDFTFTITSLQPEDFGTYYCQQYDTLHPSFGPGTTVDIKR
Regarding B1, the “fold change in KD compared to WT D1/2 (SEQ ID NO: 85)” value in assay [1] was over 2 fold. Also, the binding result in assay [2], in assay [3] and in assay [4] was “no binding” each time.
